Experimental findings from the nanobody polyreactivity screen of Harvey et al. (2022) are described below.

This series in a line: yeast display, Sf9 membrane polyspecificity reagent, FACS + sequencing; frameworks hold sequencing errors. The essentials: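 Galactose induction of a Saccharomyces cerevisiae BJ5465 synthetic nanobody display library ran 36–48 hours. The cells were then stained for 1 hour at 4 °C with 10% biotinylated, detergent-solubilized Sf9 membrane reagent, pulled down on streptavidin microbeads and FACS-sorted into low and high (top ~1%) gates on expression and reagent-binding fluorescence. Labels for polyreactivity follow the gate of origin.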
For “QVQLVESAGGLVQEGGSLRLSCAASGRIFGPYALGWYRQAPGKERELVAAISFSGSGTYYAASVKGRFTISRDNANNTVYLQIYSLKPEDNAVYYCAADGVYIDSNNRNTSDYWGQGTQVTVSS”, the “polyreactivity (PSR sort gate)” value was “low polyreactivity”.
Consider “QVQLVESAVGLVQAGGSLPLSCDASSSTIYPYAMGWYRQAPGKERELVAAISSGGSTSYADSVKGRFTISRDNAKNTVYLQMNSLKPEDTAVYYCNADPLQCKLWTYFFGFPGYYWGQGTQVTVSS”, for which the “polyreactivity (PSR sort gate)” value is reported as “low polyreactivity”.
To “QVQLVESCGGKVQAGGSLRLSCAASGRIFWYYAMVWYRQAPGKERELVAAIDRTRVRTSYADSVKGRFTISRDNAKNTVYLQMNSLKPEDTAVYYCAADLVYGHYVTYWNSYVYWGQGTEVTVSS” belongs “low polyreactivity”.
Regarding “QVQLVESCGGLVQAGCSLRLSCAASGSIFDGNAMGWYRQAPGKERDLVAVISSRGTRTYYADSVKGRFTISRDNAKITVYLQMNSLKPEDTAVYYFNTRTSDLNGSGDYWGQGTQVTVSS”, the “polyreactivity (PSR sort gate)” value was “high polyreactivity”.
“QVQLVESCGGLVQAGGRLRLICAASGRTFTYNAMGWYIQAPGQERELVAAINFSGVSTYYADSVKGRFTISRDNAKYTVYLQMNSLKPEDTAVYSCNTVGYHYESDYWGQGTQVTVSS”: the “polyreactivity (PSR sort gate)” value is recorded as “high polyreactivity”.
On to “QVQLVESCGGLVQAGGRLRLSCAASGRIFYSYAMGWSRQAPGKERELVAAITVSGGSTFYADSVKGRFTISRDNAKNTVYLQMNSLKPEDTAVYYCNAPKRYSTIGYDYWGQGSQVTVSS”, for which the “polyreactivity (PSR sort gate)” value is reported as “high polyreactivity”.
Consider “QVQLVESCGGLVQAGGSHRLSCAASGRTFRYYAMGWYRQAPWKERELVAAIRRGGSTTYADSVKVRFTISRDNAKNTVYLQMNSLKPEDTAVYYCAARYPGTRGDGYWGQGTQVTVSS”, for which the “polyreactivity (PSR sort gate)” value is “high polyreactivity”.
To “QVQLVESCGGLVQAGGSHRLSCAASGSTFKGYDMGWYRQAPGKERELVAAIDSGGSTYYADSVKGRFTISRDNAKNTVYLQMNSLKPEDTAVYYCAATGQDTYGLDVVDEYDYWGQGTQVTVSS” belongs “low polyreactivity”; to “QVQLVESCGGLVQAGGSLPLSCAASGFTFYYYTMGWYRQAPGKERELVAVITGGGGSTYYADSVKGRFTISRDNAKNTVYLQMNSLKPEDTAVYYCAAKFYGWYRERGYDYWGQGTQVTVSS”, “high polyreactivity”.
As to “QVQLVESCGGLVQAGGSLRLISAASGRTFGHNTMGWYRQAPGKEREYVAAIRWTAGSTYYADSVKGRFTISRDNAKNTVYLQMNSLKPEDTAVYYCAAYYVERRSYRVDRGTTLGYWGQGTQVTVSS”, the “polyreactivity (PSR sort gate)” value is “high polyreactivity”.
As to “QVQLVESCGGLVQAGGSLRLSCAASGFIFYDYDMGWYRQAPGKQRELVAAITYSGASTYYADSVKGRFTISRDNAKNTVYLQMNSLKPEDTAVFYCAAVKSRYADAVDYYYWGQGTQVTVSS”, the “polyreactivity (PSR sort gate)” value is on record as “low polyreactivity”.
Consider “QVQLVESCGGLVQAGGSLRLSCAASGGTFGFYAMGWYRQAPGKERELVAAISRRGGSTYYADSVKGRFTISRDNAKNTVYLQMNSLKPEDTAVYYCAARVYRYRHYDYWGQGTQVTVSS”, for which the “polyreactivity (PSR sort gate)” value is reported as “high polyreactivity”.
With “QVQLVESCGGLVQAGGSLRLSCAASGHIFFYYTMGWYRQAPGKQRELVAGITIGGSTNYADSVKGRFTISRDNAKNTVYLQMNSLKPEDTAVYYCNVVKYVYIYSYWEYYYWGQGTQVTVSS”, the “polyreactivity (PSR sort gate)” value is “low polyreactivity”.
Take “QVQLVESCGGLVQAGGSLRLSCAASGIIFSVNAMGWSRQAPGKERELVAAITIGGSTYYADSVKGRFTISRDNAKNTVYLQMNSLKPEDTAVYYCAADEYGPHTFSPESDSWGQGTQVTVSS”: the “polyreactivity (PSR sort gate)” value was “low polyreactivity”.
To “QVQLVESCGGLVQAGGSLRLSCAASGLIFWKYAMGWYRQAPGKERELVAAITSGGSTNYADSVKGRFTISRDNAKNTVYLQMNSLKPEDTAVYYCNARSWFEYYWGQGTQVTVSS” belongs “high polyreactivity”; to “QVQLVESCGGLVQAGGSLRLSCAASGRIFGIYSMGWYRQAPGKEREVVARITKSGGSTYYADSVKGRFTISRDNAKNTVYLQMNSLKPEDTAVYYCAASYYGKRDRAGPYYSFDYWGQGTQVTVSS”, “high polyreactivity”; to “QVQLVESCGGLVQAGGSLRLSCAASGRTFGVYAMGWYRQAPGKERDLVAAINYSGGSTYYADSVKGRFTISRDNAKNTVYLQMNSLKPEDTAVYSCNKGPLISYAYRYYQPYDYWGQGTQVTVSS”, “low polyreactivity”.
As to “QVQLVESCGGLVQAGGSLRLSCAASGRTFVTYAMGWYRQAPGKERELVAAISKRGSRTYYAYSVKGRFTISRDNAKNTVYLQMNSLKPEDTAVYYCNADPYRTSYDYWGQGTQVTVSS”, the “polyreactivity (PSR sort gate)” value is on record as “high polyreactivity”.
Turning to “QVQLVESCGGLVQAGGSLRLSCAASGRTFYGYAMGWYRQAPGKERELVAAITASGGSTNYADSVKGRFTISRDNAKNTVYLQMNSLKPEDTAVYYCAARVYYLGQFYWYGYWGQGTQVTVSS”, the “polyreactivity (PSR sort gate)” value is “high polyreactivity”.
Regarding “QVQLVESCGGLVQAGGSLRLSCAASGRTFYKAMGWYRQAPGKERELVAASTTGGGTKYADSVKGRFTISRDNAQNTVYLQMNSLKPEDTAVYYCNTDEWYHFYHGAHKYDYWGQGTQVTVSS”, the “polyreactivity (PSR sort gate)” value is “low polyreactivity”.
In the case of “QVQLVESCGGLVQAGGSLRLSCAASGSIFGTNAMGWYRQAPGKERELVASITRGGSTNYADSVKGRFTISRDNAKNTVYLQMNSLTPEDTAVYYCNAQGHWRWWGYDYWGQGTQVTVSS”, the “polyreactivity (PSR sort gate)” value was “low polyreactivity”.
For “QVQLVESCGGLVQAGGSLRLSCAASGSTFGYYTMGWYRQAPGKEREFVAAITRSTGSTFYADSVKGRFTISRDNAKNTVYLQMNRLKPEDTAVYDCAATQPWYNTRTRYGSWGQGTQVTVSS”, the “polyreactivity (PSR sort gate)” value was “low polyreactivity”.
On to “QVQLVESCGGLVQAGGSLRLSCAASGSTFILYAMGWYRPAPGKERELVAAISWSTGITYYADSVKGRFTISRDNAKNTVYLPMNSLKPEDTAVYYCAADAWGYHDYDASYSTGYEYWGQGTQVTVSS”, for which the “polyreactivity (PSR sort gate)” value was “high polyreactivity”.
With “QVQLVESCGGLVQAGGSLRLSCAASGSTIVSNAMGWNRQAPGKERDLVAAITSGGTTNYADSVKGRFTISRDNAKNTVYLQMISLKPEETAVYYCAKRETVYYVNHPFTYSHDYCGQGTQVTVSS”, the “polyreactivity (PSR sort gate)” value is recorded as “low polyreactivity”.
To “QVQLVESCGGLVQAGGSLRLSCAASGYTFGYYAMGWYRQAPGKERELVAAISWRGARTNYADSVKGRFTISRDNAKNNVYLQMNSLKPEDTAVYYCNAPKHNTVYTDRYDYWGQGTQVTVSS” belongs “high polyreactivity”; to “QVQLVESCGGLVQAGGSLRLSCAASGYTFRYYAMGWYRQAPGKERELVARITGRAGSTYYADSVKGRFTISRDNAKNTVYLQMNSLKPEDTAVYYCAASIREGFYWGHGTQVTVSS”, “high polyreactivity”; to “QVQLVESCGGLVQAGGSLRLSCAASRLIFGYYAMGWYRQAPVKERELVASISSGGRTYYADSVKGRFTISRDNAKNTVNLQMNSLKPEDTAVYYCNAVKGWFVYEYDYWGQGTQVTVSS”, “low polyreactivity”.
With “QVQLVESCGGLVQAGGSLRLSCAATGLIIRGNDMVWYRQAPWKERELVAGINSSGSTNYADSVKVRFTISRDNAKNTVYLQMNSLKPEDTAVYYCAARAIVSFDYWGQGTQVTVSS”, the “polyreactivity (PSR sort gate)” value was “low polyreactivity”.
To “QVQLVESCGGLVQAGGSLRLSCAAYGSIFTFYAMGWYRQAPGKERELVAAISSGGDTYYADSVTGRFTISRDNAKNTVYLQMNSLKPEDTAVYYCAADWRGSYLYGYYYWGQGTQVTASS” belongs “low polyreactivity”; to “QVQLVESCGGLVQAGGSLRLSCADSGRTFYKYAMGWYRPAPVKERELVAAITSGGGRTYYADSVKGRFTISRDNAKNTVYLQMNSLKPEDTAVYYCNAVLPLAKYEYDSWGQGTQVTVSS”, “high polyreactivity”; to “QVQLVESCGGLVQAGGSLSLSCAASGSTFNHYAMGWYRQATGKEREFVAAISWSGGSTYYADYVQGRFTISRDNAKNTGYLQMNSLKPEDTAVYYCNAAVSQFSHRWRRRLTFDYWGQGTQVTVSS”, “high polyreactivity”.
To “QVQLVESCGVLVQAGGSLRLSCAASGFILYGNAMGWYRQAHGKERELVAAISRRGGSTYYADSVKGRFTISRDNAKNTVYLQMNSLKPEDTAVYYCAKDGPGGGTRIYDYWGLGTQVTVSS” belongs “high polyreactivity”.
Consider “QVQLVESDGGLVQAGGSLRLSCAASGYIFGGYAMRWYRHAPGKERELVAAISYGVGSTYYADSVKGRFTISRDNAKNTVYLQMNSLKPEDTAVYYCAADVFFYVYEAYLLYYWGQGTQVTVSS”, for which the “polyreactivity (PSR sort gate)” value is on record as “low polyreactivity”.
Consider “QVQLVESEGGLVQAGGSLRLSCAASGFIFKYNDMGWYRQAPGKERELVAAIDVRTGLTYYADSVKGRFTISRDNAKTTVYLQMNSLKPEDPAVYYCNADYIQYAYDYWGQGTQVTVSS”, for which the “polyreactivity (PSR sort gate)” value was “high polyreactivity”.
Turning to “QVQLVESGAGIVQAGGSLRLSCAASGNSYGYAMGWYRQAPGKERELVAAITSGASDTYYADSVKGRFTISRDNAKKTVYLQMNSLKPEDTAVYYCAAVDYTNRYDPYDYWGQGTQVTVSS”, the “polyreactivity (PSR sort gate)” value was “low polyreactivity”.
To “QVQLVESGAGIVQAGGSLRLSCAASGSILWHNAMGWYRQAPGKEREYVDAISARGTRTYYADSVKGRFTISRDNAKNTVYLQLKSLNPEDTAVYYCAARYWDDRARAEDYWGQVTQVTVSS” belongs “high polyreactivity”; to “QVQLVESGAGLFQAGGRLRLSCAASGRTFQVYAMAWYRHAPGTERELVAAIDLGGGSTYYADSVKGRFTISRDNAKNTVYLQMNSLKQEDTAVYYCAADVGLRFDYWGQGTQVTVSS”, “high polyreactivity”.
As for “QVQLVESGAGLFQAGGRLRLSCAPSGSTFGTYAMGWYRQAPGKERELVAAITSGGSTDYADSVKGRFTISRDNAKNTVYLQMNSLKPEDTAVYYCNATWELLSYYYLFWGYDYWGQGTQVTVSS”, the “polyreactivity (PSR sort gate)” value is given as “low polyreactivity”.
To “QVQLVESGAGLFQAGGSLRLTCAPSGSIFAFNTMGLYRQAPGKERHLVAAITWGGGSTYYADSVKGRFTISRDNAKNTVYLQMYSLKPEDTAVYYCATKAKYGRQFLMEYWGQGTQVTVSS” belongs “high polyreactivity”; to “QVQLVESGAGLLQAGGSLRLSCAASGFIFVTYAMGWYRQAPGKERELVAAITNSGGTTYYADSVKGRFTISRDNAKNTVYLQMISLKPEDTAVYYCNKAYGAETAHREFVYWGQGTQVTVSS”, “low polyreactivity”.
